Assay: yeast display, Sf9 membrane polyspecificity reagent, FACS + sequencing; frameworks hold sequencing errors
In short: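 Genes from sorted yeast were amplified by colony PCR, read by MiSeq 2 × 250 sequencing and filtered on CDR length. These cells carried a synthetic nanobody library in Saccharomyces cerevisiae BJ5465 and were sorted by FACS into low and high (top ~1%) gates on anti-HA and streptavidin fluorescence. Polyreactivity is labelled according to the gate of origin.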

| Sequence | polyreactivity (PSR sort gate) |
| --- | --- |
| QVQLVESGGGLVQAGGSLRLSCAASGSIIVWNAMGWYRQAPGKERELVASITSGASTYYADSVKGRFTISRDNAKNTVYLQMNSLKPEDTAVYFCAAYYGYTDVWYLYSGYNYWGQGTQVTVSS | low polyreactivity |
| QVQLVESGGGLVQAGGSLRLSCAASGSIIVYNAMGWYRQAPGKERELVAAITGRVGSTYYADSVKGRFTISRDNAKNTVYLQMNSMKPEDTAVYYCAARSYFKWWYAMDYWGQGTQVTVSS | high polyreactivity |
| QVQLVESGGGLVQAGGSLRLSCAASGSIIVYYAMGWYRQAPGKQRELVAANDQSGGSTYYADSVKGRFTISRDNAKNTVYLQMNSLKPEDTAVYYCASVHSLYWLGDDTYGYDYWGQGTQVTVSS | low polyreactivity |
| QVQLVESGGGLVQAGGSLRLSCAASGSIIYLYAMGWYRQAPGKERELVAAISKSGSRTYYADSVKGRFTISRDNAKNTVYLQMNSLKPEDTAVYYCATPYRVYGEGYYWGQGTQVTVSS | high polyreactivity |
| QVQLVESGGGLVQAGGSLRLSCAASGSIIYLYAMGWYRQAPGKERELVAAITSIGGSTYADSVKGRFTISRDNAKNTVYLQMNSLKPEDTAVYYCNTDEYPLTVQVQYYYWGQGTQVTVSS | low polyreactivity |
| QVQLVESGGGLVQAGGSLRLSCAASGSIIYPYVMGWYRQAPGKERELVAAISASGGSTYYADSMKGRFTISRDNAKNTVYLQMNSLKPEDTGVYYCAKYYRFRDDYDYWGQGTQVTVSS | high polyreactivity |
| QVQLVESGGGLVQAGGSLRLSCAASGSIIYQYAMGWYRQAPGKERELVAAITWSGGSTYYADSVKGRFTISRDNAKNTVYLQMNSLKPEDTAVYYCAAYAYGGRINGYRTYRYNYWGQGTQVTVSS | high polyreactivity |
| QVQLVESGGGLVQAGGSLRLSCAASGSILAINAMGWYRQAPGKERELVAAINWSGGSTFYADSVKGRFTISRDNAKNTVYLQMNSLKPEDTAVYYCNVEWTDSERGDYYVDYDYWGQGTQVTVSS | low polyreactivity |
| QVQLVESGGGLVQAGGSLRLSCAASGSILAYNAMGWYRKAPGKERELVAAIRLSGGSTYYADSVKGRFTISRDNAKNTVYLQMNSLKPEDTAVYYCARRYYRYDTRKYNYWGQGTQVTVSS | high polyreactivity |
| QVQLVESGGGLVQAGGSLRLSCAASGSILDNYGMGWYRQAPGKERELVASISGGAGSPNYADSVKGRFTISRDNAKNTVYLQMYSLKPEVTAVYDCNADQIFGPALNLWKLDYWGQGNQVTVSS | low polyreactivity |
| QVQLVESGGGLVQAGGSLRLSCAASGSILDPNAMGWYRQAPGKERELVAAISSSGGSTYYADSVKGRFTISRDNAKNTVYLQMNSLKPEDTAVYYCAADHFIPIYSKYDYWGQGTQVTVSS | high polyreactivity |
| QVQLVESGGGLVQAGGSLRLSCAASGSILDPNAMGWYRQAPGKERELVASISRGDNTYYADSVKGRFRISRDNAKNTVYLQMNSLKPEDTAVYYCAADYSWVVWHDYWGQGTQVTVSS | low polyreactivity |
| QVQLVESGGGLVQAGGSLRLSCAASGSILDSNAMGWYRQAPGKERELVAAITSGGSTYYADSVKGRFTISRDNAKNTVYLQKNSLKPEDTAVYYCDTPVASVTGYDYWGQGTQVTVSS | low polyreactivity |
| QVQLVESGGGLVQAGGSLRLSCAASGSILDSNAMGWYRQAPGKERELVAAITSGGSTYYADSVKGRFTISRDNAMNSVYLQMNSLKPEDTAVYYCAAAYLGYGAVQPSYEGGYWGQGTQVTVSS | low polyreactivity |
| QVQLVESGGGLVQAGGSLRLSCAASGSILDYYVMGWYRQAPGKERELVAAIRGGGSTYYADSVKGRFTISRDNEKNTVYLQMNRMKREDTAVNYCAAAVYGSYTTYGYFEHYFWGQGTQVTVSS | low polyreactivity |
| QVQLVESGGGLVQAGGSLRLSCAASGSILEGNGMGWYRQAPGKERELVASITRSGGSTYYSDSVKGRFTISRDNAKNTVYLQMNSLKPEDTAVYYCAAKGSTYGLTIRWYPYLHGYNYWGQGTQVTVSS | low polyreactivity |
| QVQLVESGGGLVQAGGSLRLSCAASGSILEVYAMGWYRQAPGKERELVAAISDGDSTYYADSVKGRFTISRDNAKNTVYLQMNSLKPEDTAGYYCAAEFVGTLWWYDYWGQGTQVTVSS | low polyreactivity |
| QVQLVESGGGLVQAGGSLRLSCAASGSILFGYGMGWYRQAPGKERELVATITTSGGTYYADSVKGRFTISRDNAKNTVYLQMNSLKPEDTAVYYCAATAAALDGNTIMYYWGQGTQVTVSS | low polyreactivity |
| QVQLVESGGGLVQAGGSLRLSCAASGSILGDYAMGWYRQAPGKEREFVAAIDGSDGSTYYADSVKGRFTISRDNAKNTVYLQMNSLKPEDTAVYYCNVVRQGKREFDYWGQGTQVTVSS | low polyreactivity |
| QVQLVESGGGLVQAGGSLRLSCAASGSILGLYAMGWYRQAPEKERELVAGISSGGNTNYADSVKGRFTISRDNAKNTVYLQMNSLKPEDTAVYYSYDRIYRHYSTYSWTRYDYWGEGTQVTVSS | high polyreactivity |
| QVQLVESGGGLVQAGGSLRLSCAASGSILGNAMGWYRQAPGKERELVAAISRNGDSTYYADSVKGRFTISRDNAKNTVYLQMNSLKPEDTAVYYCNAQWFFYGYIAGDYWGQGTQVTVSS | high polyreactivity |
| QVQLVESGGGLVQAGGSLRLSCAASGSILGNYAMGWYRQAPGKEREVVAAISSSGRTSYADSVKGRFTISRDNAKNTVYLQMNSLKPEDTAVYYCNASNYIVLINDPDAAPWLYDYWGQGTQVTVSS | low polyreactivity |

| Sequence | polyreactivity (PSR sort gate) |
| --- | --- |
| QVQLVESGGGLVQAGGSLRLSCAASGSILGTYAMGWYRQAPGKERELVAAISSSGRTSYADSVKGRFTISRDNAKNTVYLQMNSLKPEDTAVYYCNASNYIFLINDPDAAPWLYDYWGQGTQVTVSS | low polyreactivity |
| QVQLVESGGGLVQAGGSLRLSCAASGSILGYYAMGWYRHAPRKERELVASITGNGGSTYYADSVKGRFTISRDNAKNTVYLQMISLKPEDTAVYYCAKRVGPYKLGEYDYWGQGTQVTVSS | high polyreactivity |
| QVQLVESGGGLVQAGGSLRLSCAASGSILGYYAMGWYRQAPGKERELVAAITASGGSTYYADSVKGRFTISRDNAKNTVYLQMNSLKPEDTAVYYCAAQYYATYGYWGQGTQVTVSS | low polyreactivity |
| QVQLVESGGGLVQAGGSLRLSCAASGSILGYYGMGWYRHAPGKERELVAAISSSCNTNYADSVKGRFTISRDNAKNTVYLQMMSLKPEDTAVYYCAASFQYVAYYLYDYWGQGTQVTVSS | low polyreactivity |
| QVQLVESGGGLVQAGGSLRLSCAASGSILIWNTMGWYRQAPGKERELVAAISISGGSTYYADSVKGRFTISRDNAKNTVYLQVNSLKPEDTAVYYCAAEVAYYYYSWGTSGYWGQGTQVTVSS | low polyreactivity |
| QVQLVESGGGLVQAGGSLRLSCAASGSILIYNAMAWYRQAPGKEMQLVAGISRRGASTYYADSVKGRFTISRDMAKNTVYLPMNSLKPEDTAVYYCAALGKYIVAWSGDYWGQGTQVNVSS | low polyreactivity |
| QVQLVESGGGLVQAGGSLRLSCAASGSILKGYALGWYRQAPGKERELVAAITSSGGRTYYADSVKGRFTISRDNAKNTVYLQMNSLKPEDTAVYYCNALGGQWARYDYWGQGTQVTVSS | high polyreactivity |
| QVQLVESGGGLVQAGGSLRLSCAASGSILLAYVMGWYRPAPGKERELVAAISSGDDTKYADSVKGRFTISRDNAMNTVYLQMNSLKPEDTAVYYCNAYTLDYPYHRFGYWGQGTQVTVSS | low polyreactivity |
| QVQLVESGGGLVQAGGSLRLSCAASGSILLVYAMGWYRQAPGKERELVATITWTDGSTYYADSVKGRFTISRDNAKNTVYLQMNSLKPEDTAVYYCNAGASVNSPLVAEYYYWGQGTQVTVSS | low polyreactivity |
| QVQLVESGGGLVQAGGSLRLSCAASGSILLYYSMGWYIQAPGKERELVARISITRDSTYYADSVKGRFTISRDNAKNTVYLQMYSLNPEDTAVYFCAADPVLHYYPSYYTGALDYYWGQGTQVTVSS | low polyreactivity |
| QVQLVESGGGLVQAGGSLRLSCAASGSILNNYAMGWYRQAPGKERELVAAISSSGGTNYADSVKGRFTISRDNAKYTVYLQMNSLKPEDTAVYYCNADVLDGGYDYWGQGTQVTVSS | low polyreactivity |
| QVQLVESGGGLVQAGGSLRLSCAASGSILPLYAMGWYRQAPGKERELVATISNAGSTTYADSVKGRFTISRDNAKNTVYLQMNSLKPEDTAVYYCNAESEWGWVYVGYDYWGQGTQVTVSS | low polyreactivity |
| QVQLVESGGGLVQAGGSLRLSCAASGSILPTNAMGWYRQAPGKERELGASITRSGGSTYYADSVKGRFTISRDNAKNTVYLQMNSLKPEDTAVYYCNARGFTRYTVGRNYWGQGTQVTVSS | high polyreactivity |
| QVQLVESGGGLVQAGGSLRLSCAASGSILQDYTMGWYRQAPGKERELVAAITWNGGSTYYADSVKGRFTISRDNEKNTVYLHMTSLKPEHTAVYYCAAYCRVVPSFYYWGQGTQVTVSS | low polyreactivity |
| QVQLVESGGGLVQAGGSLRLSCAASGSILRDYAMGWYRQAPGKERELVAAITTSGAITYYADSVKGRFTISRDNAKNTVYLQMNSLKTEDTAVYYCNAKYVRWYGKYNYWGQGTQVTVSS | high polyreactivity |
| QVQLVESGGGLVQAGGSLRLSCAASGSILRFNSMGWYRQAPGKERELVATITKGGGRTNYADSVKGRFTISRDNAKKTVYLQMNSLKPQDTSVYYCAEKFIYARYGTFQTDYKIYDYWGQGTQVTVSA | high polyreactivity |
| QVQLVESGGGLVQAGGSLRLSCAASGSILRIYAMGWYSQAPGKEMELVARITWSGGRTYYADSVKGRFTISRDNAKNTVYLQMNSLKPEDTAVYDCNADLQRWGWEYDYWGQGTQVTVSS | high polyreactivity |
| QVQLVESGGGLVQAGGSLRLSCAASGSILRLYAMGWYRQAPGNERDLVAAITYRGGRTDYADSVKGRFTISRDTAKNTVYLQLNSLKPEDTAVFYCAAGYLPSPRYSTSYLYYYWGQGTQVTVSS | high polyreactivity |
| QVQLVESGGGLVQAGGSLRLSCAASGSILRYNAMGWYSQARAKEREWVASISRGGGTNYAYSVKGRFTISRDNAKNTVYLQINSLKQEDTAVYYCAALTLRVDYDSQWYSLVDYWGQGTEVTVSS | low polyreactivity |
| QVQLVESGGGLVQAGGSLRLSCAASGSILSKNAMGWYRQAPGKERELVAAITWSGGSTYYADSVKGRFTISRDNAKNTVYLQMNSLKPEDTAVYYCAADLDWSPHFGLPYDYWGQGTQVTVSS | low polyreactivity |
| QVQLVESGGGLVQAGGSLRLSCAASGSILSTNDMGWYRQAPGKERELVAGISSGGSTNYADSVKGRFTISRDNAKNTVYLQMNSQKPEDTAVYYCATDVDKDPAEMDYWGQGTQVTVSS | low polyreactivity |

— the nanobody polyreactivity screen of Harvey et al. (2022)
